Test results as given in US20250195578A1, “MEDIUM COMPOSITION FOR CULTURING URINE-DERIVED STEM CELL, METHOD FOR ISOLATING AND CULTURING URINE-DERIVED STEM CELL USING SAME, URINE-DERIVED STEM CELL WITH IMPROVED THERAPEUTIC FUNCTION FOR RENAL DISEASE, AND CELL THERAPY PRODUCT COMPOSITION CONTAINING SAME” (EHLBIO CO., LTD., priority 2021, published 2025).

B1: FGF23: growth factor added to the culture medium (Sigma-Aldrich) (protein, UniProt Q9GZV9 25-251, looked up)
Fibroblast growth factor 23: YPNASPLLGSSWGGLIHLYTATARNSYHLQIHKNGHVDGAPHQTIYSALMIRSEDAGFVVITGVMSRRYLCMDFRGNIFGSHYFDPENCRFQHQTLENGYDVYHSPQYHFLVSLGRAKRAFLPGMNPPPYSQFLSRRNEIPLIHFNTPIPRRHTRSAEDDSERDPLNVLKPRARMTPAPASCSQELPSAEDNSPMASDPLGVVRGGRVNTHAGGTGPEGCRPFAKFI
B2: PTH: parathyroid hormone (PTH), medium additive (Sigma-Aldrich) (peptide, UniProt P01270 32-115, looked up)
Parathyroid hormone: SVSEIQLMHNLGKHLNSMERVEWLRKKLQDVHNFVALGAPLAPRDAGSQRPRKKEDNVLVESHEKSLGEADKADVNVLTKAKSQ
modifications: Parathyroid hormone

Columns and labels:
klotho gene = assay: Optimal additive concentration: klotho gene expression in urine-derived stem cells; format: cell-based, human; conditions: for effect on klotho gene expression of addition to TM8 medium: compared to control group, dose-dependent; for optimal concentration (klotho gene expression): enhancement in gene expression relative to added dosage
Protocol: (§1) In this Example, cell proliferation rate or klotho gene analysis was conducted with various concentrations of lipid mixture (CDLC), T3, FGF23, Calcifediol, and PTH in the TM8 culture medium to explore their optimal concentrations (see FIG. 5).
Furthermore, FGF23, Calcifediol, and PTH that are added to the culture medium of the present disclosure are growth factors and hormones that interact through the endocrine system in the human kidney. The klotho proteins in the human body mediate these interactions. The inventors aimed to enhance the expression of klotho proteins in urine-derived stem cells by mimicking the endocrine system in the human body through the composition of the culture medium. In this Example, evaluation was made of the enhancement of klotho gene expression in urine-derived stem cells in various concentration ranges of FGF23, Calcifediol, and PTH to determine their optimal concentrations.
(§2) Additionally, in this Example, to explore the optimal concentrations while excluding the interactions among the substances, each substance was individually added to the TM8 basal medium (hereinafter referred to as proliferation or klotho gene TM8-Basal), and cell expression was analyzed and compared. The TM8 medium containing all substances at their optimal concentrations was used as the control group (FIG. 6).

urine-derived stem cells = assay: Optimal additive concentration: cell proliferation rate of urine-derived stem cells; format: cell-based, human; conditions: enhancement in proliferation relative to added dosage
Protocol: as §1
Specifically, CDLC was used to compensate for the decrease in cell proliferation rate caused by low serum usage, while T3 was used to facilitate the proliferation of urine-derived stem cells with characteristics of epithelial cells. In this example, evaluation was made of the improvement of cell proliferation rate in urine-derived stem cells in various concentration ranges of lipid mixture and T3 to determine their optimal concentrations.
as §2

Molecule	effect on klotho gene expression of addition to TM8 medium (klotho gene)	optimal concentration (klotho gene expression) (klotho gene)	optimal concentration (cell proliferation) (urine-derived stem cells) [nM]
C=C1CC[C@H](O)C/C1=C/C=C1\CCC[C@]2(C)[C@@H]([C@H](C)CCCC(C)(C)O)CC[C@@H]12 [Calcifediol, reference compound]	increased klotho gene expression	100 nM	
N[C@@H](Cc1cc(I)c(Oc2ccc(O)c(I)c2)c(I)c1)C(=O)O [T3, Triiodo-L-thyronine]			10
B1	increased klotho gene expression	10 ng/mL	
B2	increased klotho gene expression	100 nM	
